System: Escherichia coli TOP10
Assay: shrunken log2 fold change of peptide-encoding DNA abundance (4.5 h post-induction vs induction); higher = less antimicrobial activity (less host growth inhibition)
Settings: time post-induction: 4.5 h; library: site-saturation at positions 5, 18, 19, 20
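Further: peptides expressed intracellularly from a pBAD plasmid library in pooled LB shake-flask culture, induced with 0.3% L-arabinose, DNA abundance read by NGS, three biological replicates, DESeq2 with apeglm shrinkage.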

Row | Sequence | shrunken log2 fold change
1 | RRIRCRPPRLPRPRPRPALGPRP | 0.38
2 | RRIRCRPPRLPRPRPRPALSPRP | 0.282
3 | RRIRCRPPRLPRPRPRPAMKPRP | -0.104
4 | RRIRCRPPRLPRPRPRPANEPRP | 0.0681
5 | RRIRCRPPRLPRPRPRPAPYPRP | 0.0992
6 | RRIRCRPPRLPRPRPRPASCPRP | 0.209
7 | RRIRCRPPRLPRPRPRPASMPRP | -0.412
8 | RRIRCRPPRLPRPRPRPASNPRP | -0.342
9 | RRIRCRPPRLPRPRPRPATVPRP | 0.141
10 | RRIRCRPPRLPRPRPRPAVCPRP | 0.297
11 | RRIRCRPPRLPRPRPRPAWLPRP | 0.303
12 | RRIRCRPPRLPRPRPRPAWRPRP | 0.575
13 | RRIRCRPPRLPRPRPRPAYQPRP | -0.0687
14 | RRIRCRPPRLPRPRPRPAYVPRP | -0.288
15 | RRIRCRPPRLPRPRPRPCAAPRP | 0.514
16 | RRIRCRPPRLPRPRPRPCDGPRP | 0.0624
17 | RRIRCRPPRLPRPRPRPCDHPRP | 0.0959
18 | RRIRCRPPRLPRPRPRPCDLPRP | 3.04
19 | RRIRCRPPRLPRPRPRPCEIPRP | 0.0656
20 | RRIRCRPPRLPRPRPRPCERPRP | -0.0644
21 | RRIRCRPPRLPRPRPRPCESPRP | -0.0611
22 | RRIRCRPPRLPRPRPRPCFQPRP | -0.212
23 | RRIRCRPPRLPRPRPRPCHFPRP | -0.273
24 | RRIRCRPPRLPRPRPRPCIKPRP | -0.426
25 | RRIRCRPPRLPRPRPRPCKQPRP | -0.0357

Row | Sequence | shrunken log2 fold change
26 | RRIRCRPPRLPRPRPRPCLAPRP | -0.257
27 | RRIRCRPPRLPRPRPRPCLMPRP | -0.421
28 | RRIRCRPPRLPRPRPRPCLTPRP | -0.17
29 | RRIRCRPPRLPRPRPRPCMCPRP | -0.668
30 | RRIRCRPPRLPRPRPRPCMGPRP | -0.241
31 | RRIRCRPPRLPRPRPRPCNGPRP | -0.00386
32 | RRIRCRPPRLPRPRPRPCNMPRP | -0.502
33 | RRIRCRPPRLPRPRPRPCNNPRP | -0.31
34 | RRIRCRPPRLPRPRPRPCPDPRP | -0.612
35 | RRIRCRPPRLPRPRPRPCQIPRP | 0.0258
36 | RRIRCRPPRLPRPRPRPCSCPRP | -1.33
37 | RRIRCRPPRLPRPRPRPCSDPRP | -0.0728
38 | RRIRCRPPRLPRPRPRPCTMPRP | -0.725
39 | RRIRCRPPRLPRPRPRPCTTPRP | -0.427
40 | RRIRCRPPRLPRPRPRPCVAPRP | 0.178
41 | RRIRCRPPRLPRPRPRPDAVPRP | 0.0365
42 | RRIRCRPPRLPRPRPRPDCAPRP | 0.515
43 | RRIRCRPPRLPRPRPRPDCMPRP | 0.0384
44 | RRIRCRPPRLPRPRPRPDCSPRP | 0.072
45 | RRIRCRPPRLPRPRPRPDDQPRP | 0.23
46 | RRIRCRPPRLPRPRPRPDEQPRP | -0.00573
47 | RRIRCRPPRLPRPRPRPDFMPRP | -0.163
48 | RRIRCRPPRLPRPRPRPDFVPRP | -0.196
49 | RRIRCRPPRLPRPRPRPDHIPRP | -0.489
50 | RRIRCRPPRLPRPRPRPDHRPRP | -0.106

Row | Sequence | shrunken log2 fold change
51 | RRIRCRPPRLPRPRPRPDKGPRP | 0.0974
52 | RRIRCRPPRLPRPRPRPDKYPRP | -0.717
53 | RRIRCRPPRLPRPRPRPDLPPRP | -0.265
54 | RRIRCRPPRLPRPRPRPDMPPRP | -0.253
55 | RRIRCRPPRLPRPRPRPDNDPRP | -0.124
56 | RRIRCRPPRLPRPRPRPDQDPRP | 0.0433
57 | RRIRCRPPRLPRPRPRPDQEPRP | 0.0455
58 | RRIRCRPPRLPRPRPRPDQNPRP | -0.138
59 | RRIRCRPPRLPRPRPRPDQTPRP | -0.00778
60 | RRIRCRPPRLPRPRPRPDRGPRP | 0.0229
61 | RRIRCRPPRLPRPRPRPDRIPRP | -0.0911
62 | RRIRCRPPRLPRPRPRPDSVPRP | -0.894
63 | RRIRCRPPRLPRPRPRPDTIPRP | -0.738
64 | RRIRCRPPRLPRPRPRPDTVPRP | -0.369
65 | RRIRCRPPRLPRPRPRPDVCPRP | -0.0548
66 | RRIRCRPPRLPRPRPRPDVRPRP | -0.0317
67 | RRIRCRPPRLPRPRPRPEAEPRP | 0.656
68 | RRIRCRPPRLPRPRPRPEAPPRP | 0.755
69 | RRIRCRPPRLPRPRPRPECDPRP | 0.346
70 | RRIRCRPPRLPRPRPRPEDIPRP | -0.12
71 | RRIRCRPPRLPRPRPRPEDPPRP | 0.779
72 | RRIRCRPPRLPRPRPRPEGHPRP | 0.38
73 | RRIRCRPPRLPRPRPRPEGYPRP | 0.461
74 | RRIRCRPPRLPRPRPRPEHHPRP | -0.114
75 | RRIRCRPPRLPRPRPRPEHQPRP | 0.0614

Row | Sequence | shrunken log2 fold change
76 | RRIRCRPPRLPRPRPRPEKAPRP | 0.0655
77 | RRIRCRPPRLPRPRPRPEKDPRP | -0.0681
78 | RRIRCRPPRLPRPRPRPEKHPRP | 0.00607
79 | RRIRCRPPRLPRPRPRPELGPRP | 0.211
80 | RRIRCRPPRLPRPRPRPELYPRP | 0.221
81 | RRIRCRPPRLPRPRPRPEMAPRP | 0.532
82 | RRIRCRPPRLPRPRPRPEMTPRP | 0.517
83 | RRIRCRPPRLPRPRPRPENPPRP | -0.0628
84 | RRIRCRPPRLPRPRPRPENQPRP | -0.0366
85 | RRIRCRPPRLPRPRPRPENRPRP | -0.168
86 | RRIRCRPPRLPRPRPRPEPQPRP | 0.468
87 | RRIRCRPPRLPRPRPRPEQPPRP | 0.581
88 | RRIRCRPPRLPRPRPRPERWPRP | 0.877
89 | RRIRCRPPRLPRPRPRPESCPRP | -0.0297
90 | RRIRCRPPRLPRPRPRPEVVPRP | 0.332
91 | RRIRCRPPRLPRPRPRPFCCPRP | -0.175
92 | RRIRCRPPRLPRPRPRPFCQPRP | -0.353
93 | RRIRCRPPRLPRPRPRPFDLPRP | -0.0696
94 | RRIRCRPPRLPRPRPRPFEFPRP | 0.0705
95 | RRIRCRPPRLPRPRPRPFENPRP | -0.0274
96 | RRIRCRPPRLPRPRPRPFEWPRP | -0.0143
97 | RRIRCRPPRLPRPRPRPFFQPRP | -0.152
98 | RRIRCRPPRLPRPRPRPFILPRP | -0.898
99 | RRIRCRPPRLPRPRPRPFKDPRP | -0.54
100 | RRIRCRPPRLPRPRPRPFKIPRP | -0.6

Row | Sequence | shrunken log2 fold change
101 | RRIRCRPPRLPRPRPRPFLNPRP | -0.602
102 | RRIRCRPPRLPRPRPRPFMSPRP | 0.0579
103 | RRIRCRPPRLPRPRPRPFMTPRP | -0.737
104 | RRIRCRPPRLPRPRPRPFNAPRP | -0.521
105 | RRIRCRPPRLPRPRPRPFNCPRP | -1.32
106 | RRIRCRPPRLPRPRPRPFQGPRP | 0.203
107 | RRIRCRPPRLPRPRPRPFQTPRP | -0.153
108 | RRIRCRPPRLPRPRPRPFQVPRP | -0.335
109 | RRIRCRPPRLPRPRPRPFSIPRP | -0.261
110 | RRIRCRPPRLPRPRPRPFWKPRP | -0.271
111 | RRIRCRPPRLPRPRPRPFWQPRP | -0.0799
112 | RRIRCRPPRLPRPRPRPFYYPRP | -0.97
113 | RRIRCRPPRLPRPRPRPGAAPRP | 0.956
114 | RRIRCRPPRLPRPRPRPGCVPRP | 0.248
115 | RRIRCRPPRLPRPRPRPGESPRP | 0.107
116 | RRIRCRPPRLPRPRPRPGGAPRP | 0.462
117 | RRIRCRPPRLPRPRPRPGGMPRP | 0.215
118 | RRIRCRPPRLPRPRPRPGGPPRP | 0.108
119 | RRIRCRPPRLPRPRPRPGGRPRP | 0.404
120 | RRIRCRPPRLPRPRPRPGGVPRP | 0.42
121 | RRIRCRPPRLPRPRPRPGIGPRP | 0.295
122 | RRIRCRPPRLPRPRPRPGISPRP | -0.195
123 | RRIRCRPPRLPRPRPRPGKEPRP | -0.0657
124 | RRIRCRPPRLPRPRPRPGKNPRP | -0.133
125 | RRIRCRPPRLPRPRPRPGNMPRP | -0.368

Row | Sequence | shrunken log2 fold change
126 | RRIRCRPPRLPRPRPRPGNNPRP | -0.47
127 | RRIRCRPPRLPRPRPRPGNYPRP | -0.516
128 | RRIRCRPPRLPRPRPRPGPDPRP | 0.359
129 | RRIRCRPPRLPRPRPRPGPEPRP | 0.473
130 | RRIRCRPPRLPRPRPRPGPKPRP | 0.3
131 | RRIRCRPPRLPRPRPRPGPNPRP | 0.296
132 | RRIRCRPPRLPRPRPRPGQEPRP | 0.094
133 | RRIRCRPPRLPRPRPRPGRIPRP | -0.231
134 | RRIRCRPPRLPRPRPRPGSDPRP | -0.0369
135 | RRIRCRPPRLPRPRPRPGSVPRP | 0.102
136 | RRIRCRPPRLPRPRPRPGSWPRP | 0.439
137 | RRIRCRPPRLPRPRPRPGTKPRP | -0.404
138 | RRIRCRPPRLPRPRPRPGVFPRP | -0.00263
139 | RRIRCRPPRLPRPRPRPGVGPRP | 0.455
140 | RRIRCRPPRLPRPRPRPGVTPRP | -0.175
141 | RRIRCRPPRLPRPRPRPGWEPRP | 0.253
142 | RRIRCRPPRLPRPRPRPGWKPRP | 0.173
143 | RRIRCRPPRLPRPRPRPHEKPRP | -0.277
144 | RRIRCRPPRLPRPRPRPHEQPRP | -0.15
145 | RRIRCRPPRLPRPRPRPHEVPRP | 0.104
146 | RRIRCRPPRLPRPRPRPHFHPRP | -0.712
147 | RRIRCRPPRLPRPRPRPHGHPRP | -0.167
148 | RRIRCRPPRLPRPRPRPHHEPRP | -0.24
149 | RRIRCRPPRLPRPRPRPHIAPRP | -0.413
150 | RRIRCRPPRLPRPRPRPHIVPRP | -0.325
